US20070078092A1 (CUREGENICS, published 2007)
Numbered stars: 1 amine (or outer) side, 2 acyl side, 3 side chain; on linkers, the order of the positions; unused ones are H or OH. Square brackets hold non-standard residues; d marks the D form. Ends that are not written are not given here. * marks the point of attachment. Cholesteryloxycarbonyl = CC(C)CCC[C@@H](C)[C@H]1CC[C@H]2[C@@H]3CC=C4C[C@@H](OC(=O)*)CC[C@]4(C)[C@H]3CC[C@]12C; Ser(Me) = COC[C@H](N[*:1])C(=O)[*:2]; hLeu = CC(C)CC[C@H](N)C(=O)O; Nva = CCC[C@H](N)C(=O)O; Dap = NC[C@H](N)C(=O)O; GABA = NCCCC(=O)O; βAla = NCCC(=O)O

B1: PTR 6304 (peptide)
peptide: Cholesteryloxycarbonyl-RPR[Nva]Y[Ser(Me)][hLeu]-NH2
SMILES: CCC[C@H](NC(=O)[C@H](CCCNC(=N)N)NC(=O)[C@@H]1CCCN1C(=O)[C@H](CCCNC(=N)N)NC(=O)O[C@H]1CC[C@@]2(C)C(=CC[C@H]3[C@@H]4CC[C@H]([C@H](C)CCCC(C)C)[C@@]4(C)CC[C@@H]32)C1)C(=O)N[C@@H](Cc1ccc(O)cc1)C(=O)N[C@@H](COC)C(=O)N[C@@H](CCC(C)C)C(N)=O
B2: PTR 6312 (peptide)
peptide: [dK][dK][dK][dK][dK][dK][dK][dK]RPR[Nva]Y[Dap][hLeu]K(Cholesteryloxycarbonyl)-NH2
modifications: N-terminus assumed
SMILES: CCC[C@H](NC(=O)[C@H](CCCNC(=N)N)NC(=O)[C@@H]1CCCN1C(=O)[C@H](CCCNC(=N)N)NC(=O)[C@@H](CCCCN)NC(=O)[C@@H](CCCCN)NC(=O)[C@@H](CCCCN)NC(=O)[C@@H](CCCCN)NC(=O)[C@@H](CCCCN)NC(=O)[C@@H](CCCCN)NC(=O)[C@@H](CCCCN)NC(=O)[C@H](N)CCCCN)C(=O)N[C@@H](Cc1ccc(O)cc1)C(=O)N[C@@H](CN)C(=O)N[C@@H](CCC(C)C)C(=O)N[C@@H](CCCCNC(=O)O[C@H]1CC[C@@]2(C)C(=CC[C@H]3[C@@H]4CC[C@H]([C@H](C)CCCC(C)C)[C@@]4(C)CC[C@@H]32)C1)C(N)=O
B3: PTR 6320 (peptide)
peptide: Cholesteryloxycarbonyl-[dK][dK][dK]RPR[Nva]Y[Dap][hLeu]-NH2
SMILES: CCC[C@H](NC(=O)[C@H](CCCNC(=N)N)NC(=O)[C@@H]1CCCN1C(=O)[C@H](CCCNC(=N)N)NC(=O)[C@@H](CCCCN)NC(=O)[C@@H](CCCCN)NC(=O)[C@@H](CCCCN)NC(=O)O[C@H]1CC[C@@]2(C)C(=CC[C@H]3[C@@H]4CC[C@H]([C@H](C)CCCC(C)C)[C@@]4(C)CC[C@@H]32)C1)C(=O)N[C@@H](Cc1ccc(O)cc1)C(=O)N[C@@H](CN)C(=O)N[C@@H](CCC(C)C)C(N)=O
B4: PTR 6296 (peptide)
peptide: Cholesteryloxycarbonyl-[βAla]RPR[Nva]Y[Dap][hLeu]-NH2
SMILES: CCC[C@H](NC(=O)[C@H](CCCNC(=N)N)NC(=O)[C@@H]1CCCN1C(=O)[C@H](CCCNC(=N)N)NC(=O)CCNC(=O)O[C@H]1CC[C@@]2(C)C(=CC[C@H]3[C@@H]4CC[C@H]([C@H](C)CCCC(C)C)[C@@]4(C)CC[C@@H]32)C1)C(=O)N[C@@H](Cc1ccc(O)cc1)C(=O)N[C@@H](CN)C(=O)N[C@@H](CCC(C)C)C(N)=O
B5: PTR 6326 (peptide)
peptide: Cholesteryloxycarbonyl-[dK][dK][dK][dK][dK][dK]RPR[Nva]Y[Dap][hLeu]-NH2
SMILES: CCC[C@H](NC(=O)[C@H](CCCNC(=N)N)NC(=O)[C@@H]1CCCN1C(=O)[C@H](CCCNC(=N)N)NC(=O)[C@@H](CCCCN)NC(=O)[C@@H](CCCCN)NC(=O)[C@@H](CCCCN)NC(=O)[C@@H](CCCCN)NC(=O)[C@@H](CCCCN)NC(=O)[C@@H](CCCCN)NC(=O)O[C@H]1CC[C@@]2(C)C(=CC[C@H]3[C@@H]4CC[C@H]([C@H](C)CCCC(C)C)[C@@]4(C)CC[C@@H]32)C1)C(=O)N[C@@H](Cc1ccc(O)cc1)C(=O)N[C@@H](CN)C(=O)N[C@@H](CCC(C)C)C(N)=O
B6: PTR 6308 (peptide)
peptide: Cholesteryloxycarbonyl-[βAla]RPR[Nva]Y[Ser(Me)][hLeu]-NH2
SMILES: CCC[C@H](NC(=O)[C@H](CCCNC(=N)N)NC(=O)[C@@H]1CCCN1C(=O)[C@H](CCCNC(=N)N)NC(=O)CCNC(=O)O[C@H]1CC[C@@]2(C)C(=CC[C@H]3[C@@H]4CC[C@H]([C@H](C)CCCC(C)C)[C@@]4(C)CC[C@@H]32)C1)C(=O)N[C@@H](Cc1ccc(O)cc1)C(=O)N[C@@H](COC)C(=O)N[C@@H](CCC(C)C)C(N)=O
B7: PTR 6324 (peptide)
peptide: Cholesteryloxycarbonyl-[dK][dK][dK][dK][dK]RPR[Nva]Y[Dap][hLeu]-NH2
SMILES: CCC[C@H](NC(=O)[C@H](CCCNC(=N)N)NC(=O)[C@@H]1CCCN1C(=O)[C@H](CCCNC(=N)N)NC(=O)[C@@H](CCCCN)NC(=O)[C@@H](CCCCN)NC(=O)[C@@H](CCCCN)NC(=O)[C@@H](CCCCN)NC(=O)[C@@H](CCCCN)NC(=O)O[C@H]1CC[C@@]2(C)C(=CC[C@H]3[C@@H]4CC[C@H]([C@H](C)CCCC(C)C)[C@@]4(C)CC[C@@H]32)C1)C(=O)N[C@@H](Cc1ccc(O)cc1)C(=O)N[C@@H](CN)C(=O)N[C@@H](CCC(C)C)C(N)=O
B8: PTR 6318 (peptide)
peptide: Cholesteryloxycarbonyl-[dK][dK]RPR[Nva]Y[Dap][hLeu]-NH2
SMILES: CCC[C@H](NC(=O)[C@H](CCCNC(=N)N)NC(=O)[C@@H]1CCCN1C(=O)[C@H](CCCNC(=N)N)NC(=O)[C@@H](CCCCN)NC(=O)[C@@H](CCCCN)NC(=O)O[C@H]1CC[C@@]2(C)C(=CC[C@H]3[C@@H]4CC[C@H]([C@H](C)CCCC(C)C)[C@@]4(C)CC[C@@H]32)C1)C(=O)N[C@@H](Cc1ccc(O)cc1)C(=O)N[C@@H](CN)C(=O)N[C@@H](CCC(C)C)C(N)=O
B9: PTR 6962 (peptide)
peptide: Cholesteryloxycarbonyl-[dK][dK][dK][dK][dK][dK][dK][dK]RPR[Nva]Y[Dap][hLeu]-NH2
SMILES: CCC[C@H](NC(=O)[C@H](CCCNC(=N)N)NC(=O)[C@@H]1CCCN1C(=O)[C@H](CCCNC(=N)N)NC(=O)[C@@H](CCCCN)NC(=O)[C@@H](CCCCN)NC(=O)[C@@H](CCCCN)NC(=O)[C@@H](CCCCN)NC(=O)[C@@H](CCCCN)NC(=O)[C@@H](CCCCN)NC(=O)[C@@H](CCCCN)NC(=O)[C@@H](CCCCN)NC(=O)O[C@H]1CC[C@@]2(C)C(=CC[C@H]3[C@@H]4CC[C@H]([C@H](C)CCCC(C)C)[C@@]4(C)CC[C@@H]32)C1)C(=O)N[C@@H](Cc1ccc(O)cc1)C(=O)N[C@@H](CN)C(=O)N[C@@H](CCC(C)C)C(N)=O
B10: PTR 6298 (peptide)
peptide: Cholesteryloxycarbonyl-[GABA]RPR[Nva]Y[Dap][hLeu]-NH2
SMILES: CCC[C@H](NC(=O)[C@H](CCCNC(=N)N)NC(=O)[C@@H]1CCCN1C(=O)[C@H](CCCNC(=N)N)NC(=O)CCCNC(=O)O[C@H]1CC[C@@]2(C)C(=CC[C@H]3[C@@H]4CC[C@H]([C@H](C)CCCC(C)C)[C@@]4(C)CC[C@@H]32)C1)C(=O)N[C@@H](Cc1ccc(O)cc1)C(=O)N[C@@H](CN)C(=O)N[C@@H](CCC(C)C)C(N)=O
B11: PTR 6322 (peptide)
peptide: Cholesteryloxycarbonyl-[dK][dK][dK][dK]RPR[Nva]Y[Dap][hLeu]-NH2
SMILES: CCC[C@H](NC(=O)[C@H](CCCNC(=N)N)NC(=O)[C@@H]1CCCN1C(=O)[C@H](CCCNC(=N)N)NC(=O)[C@@H](CCCCN)NC(=O)[C@@H](CCCCN)NC(=O)[C@@H](CCCCN)NC(=O)[C@@H](CCCCN)NC(=O)O[C@H]1CC[C@@]2(C)C(=CC[C@H]3[C@@H]4CC[C@H]([C@H](C)CCCC(C)C)[C@@]4(C)CC[C@@H]32)C1)C(=O)N[C@@H](Cc1ccc(O)cc1)C(=O)N[C@@H](CN)C(=O)N[C@@H](CCC(C)C)C(N)=O
B12: PTR 6328 (peptide)
peptide: Cholesteryloxycarbonyl-GGRPR[Nva]Y[Dap][hLeu]-NH2
SMILES: CCC[C@H](NC(=O)[C@H](CCCNC(=N)N)NC(=O)[C@@H]1CCCN1C(=O)[C@H](CCCNC(=N)N)NC(=O)CNC(=O)CNC(=O)O[C@H]1CC[C@@]2(C)C(=CC[C@H]3[C@@H]4CC[C@H]([C@H](C)CCCC(C)C)[C@@]4(C)CC[C@@H]32)C1)C(=O)N[C@@H](Cc1ccc(O)cc1)C(=O)N[C@@H](CN)C(=O)N[C@@H](CCC(C)C)C(N)=O
B13: PTR 6330 (peptide)
peptide: Cholesteryloxycarbonyl-GGGRPR[Nva]Y[Dap][hLeu]-NH2
SMILES: CCC[C@H](NC(=O)[C@H](CCCNC(=N)N)NC(=O)[C@@H]1CCCN1C(=O)[C@H](CCCNC(=N)N)NC(=O)CNC(=O)CNC(=O)CNC(=O)O[C@H]1CC[C@@]2(C)C(=CC[C@H]3[C@@H]4CC[C@H]([C@H](C)CCCC(C)C)[C@@]4(C)CC[C@@H]32)C1)C(=O)N[C@@H](Cc1ccc(O)cc1)C(=O)N[C@@H](CN)C(=O)N[C@@H](CCC(C)C)C(N)=O
B14: PTR 6306 (peptide)
peptide: Cholesteryloxycarbonyl-GRPR[Nva]Y[Ser(Me)][hLeu]-NH2
SMILES: CCC[C@H](NC(=O)[C@H](CCCNC(=N)N)NC(=O)[C@@H]1CCCN1C(=O)[C@H](CCCNC(=N)N)NC(=O)CNC(=O)O[C@H]1CC[C@@]2(C)C(=CC[C@H]3[C@@H]4CC[C@H]([C@H](C)CCCC(C)C)[C@@]4(C)CC[C@@H]32)C1)C(=O)N[C@@H](Cc1ccc(O)cc1)C(=O)N[C@@H](COC)C(=O)N[C@@H](CCC(C)C)C(N)=O
B15: PTR 6294 (peptide)
peptide: Cholesteryloxycarbonyl-GRPR[Nva]Y[Dap][hLeu]-NH2
SMILES: CCC[C@H](NC(=O)[C@H](CCCNC(=N)N)NC(=O)[C@@H]1CCCN1C(=O)[C@H](CCCNC(=N)N)NC(=O)CNC(=O)O[C@H]1CC[C@@]2(C)C(=CC[C@H]3[C@@H]4CC[C@H]([C@H](C)CCCC(C)C)[C@@]4(C)CC[C@@H]32)C1)C(=O)N[C@@H](Cc1ccc(O)cc1)C(=O)N[C@@H](CN)C(=O)N[C@@H](CCC(C)C)C(N)=O

Target: protein kinase B (PKB)
Test: cell-based or functional assay

Binder	IC50, in vitro kinase assay PKB [µM]
B1	0.5
B2	0.1
B3	0.2
B4	2
B5	0.1
B6	0.5
B7	0.1
B8	0.2
B9	0.1
B10	2
B11	0.1
B12	1
B13	1
B14	0.5
B15	1
